The source of these data is paper PMC6277172 (Protein Engineering, Design and Selection, 2018).

The test has as its target N-terminal domain of MDM2 (M6-N125) (UniProt Q00987 6-125). Put plainly: fluorescence polarisation. A general note: Fluorescence polarisation rises when a labelled molecule tumbles more slowly, as on binding a larger partner.

Chain of N-terminal domain of MDM2 (M6-N125) (Q00987 6-125): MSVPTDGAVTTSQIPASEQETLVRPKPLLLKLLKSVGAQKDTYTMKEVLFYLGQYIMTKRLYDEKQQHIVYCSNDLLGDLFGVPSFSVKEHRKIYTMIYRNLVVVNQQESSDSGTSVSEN

On to {FAM}-RFMDYWEGL-NH2 [FAM labeled 12-1 peptide], for which the binding result is “binds”.
